{
  "source": "patent US20110189292A1",
  "about": "(ALLERGAN, published 2011)",
  "key": {"[1]": {"molecular_target": "T1, silk fibroin, sericin-extracted, from degummed Bombyx mori silk, dissolved in 9.3 M LiBr and dialysed (Bombyx mori, UniProt P05790 22-5263; P21828 17-262, limits assumed)", "T1 construct": "also called silk molecules", "experiment": "HPLC of 23RGD extracted from lyophilised silk precipitate; formulation BASE", "procedure": "(§1) The amount of 23RGD bound to silk precipitates was quantified by analyzing lyophilized samples. The 23RGD was removed by incubating the samples for 4 hours in a dissolving buffer, then centrifuging on an Eppendorf 5415C (Eppendorf North America Inc., Westbury, N.Y.) at 16,000 g (RCF) for 30 minutes and the supernatant collected. This supernatant was then centrifuged in identical fashion and the final supernatant collected for HPLC analysis using a PerkinElmer Series 200 (PerkinElmer, Waltham, Mass.). The 23RGD peak areas from each curve were compared against a standard curve. 1-Way ANOVA was used to test for significant differences caused by changing silk concentration, 23RGD concentration, and accelerant volume. A Student's t-test was used to test the significance of differences resulting from altered ethanol concentrations."}, "[2]": {"molecular_target": "T1, silk fibroin, sericin-extracted, from …", "experiment": "HPLC of 23RGD extracted from lyophilised silk precipitate; formulation SCVLO", "procedure": "as §1"}, "[3]": {"molecular_target": "T1, silk fibroin, sericin-extracted, from …", "experiment": "HPLC of 23RGD extracted from lyophilised silk precipitate; formulation AVHI", "procedure": "as §1"}, "[4]": {"molecular_target": "T1, silk fibroin, sericin-extracted, from …", "experiment": "HPLC of 23RGD extracted from lyophilised silk precipitate; formulation AVLO", "procedure": "as §1"}, "[5]": {"molecular_target": "T1, silk fibroin, sericin-extracted, from …", "experiment": "HPLC of 23RGD extracted from silk precipitate; formulation ECLO, against the calculated ratio", "procedure": "as §1\n(§2) Few of the silk precipitates entrained a molar ratio similar to what was initially calculated (FIG. 23). Four groups, SCVLO, AVHI, RHI, and RLO contained ratios similar to their calculated values of RGD per mole of silk. The six remaining groups contained ratios substantially greater than their calculated values. In the cases of AVLO, BASE, RMED, and SCLO, the RGD quantities were about 2-fold greater than expected. Although not wishing to be limited by theory, this greater observed molar ratio may be indicative of the formation of a RGD bi-layer. […]"}, "[6]": {"molecular_target": "T1, silk fibroin, sericin-extracted, from …", "experiment": "HPLC of 23RGD extracted from silk precipitate; formulation 0.6S 3R 10:1", "procedure": "as §1\nPrecipitate samples generated at a calculated 10:1 23RGD:silk ratio consistently generated a “correct” molecular binding ratio. In the case of AVHI, this runs contrary to the trend of bound 23RGD concentrations being approximately double the projected values as indicated by AVLO and BASE (about 5:1 and about 9:1, respectively). This might be explained by saturation of the silk with 23RGD in the case of 10:1 23RGD precipitates. […]"}, "[7]": {"molecular_target": "T1, silk fibroin, sericin-extracted, from …", "experiment": "HPLC of 23RGD extracted from lyophilised silk precipitate; formulation printed as RLO", "procedure": "as §1"}, "[8]": {"molecular_target": "T1, silk fibroin, sericin-extracted, from …", "experiment": "HPLC of 23RGD extracted from the rinsed silk gel, against a standard curve", "excerpt": "23RGD-infused gels were studied to quantify the amount of 23RGD bound to the silk-hydrogel device as well as the quantity of free 23RGD which might be rinsed free of the device under relevant conditions. Briefly, samples of 23RGD-infused gel were cast and rinsed according to the methods above, with samples of rinse buffer being collected from each rinse for subsequent analysis by HPLC. Additionally, subsequent to the last rinse, the gel samples were mechanically pulverized by means of a stainless steel stirring rod and the adsorbed 23RGD removed by incubation for 4 hours in a dissolving buffer. This mixture of gel and solvent was then centrifuged on an Eppendorf 5415C at 16,000 g RCF for 30 minutes. The supernatant was collected and centrifuged another 30 minutes at 16,000 g RCF after which time the supernatant was collected in a sample vial for HPLC analysis. Samples of rinse buffer from the first and last rinse were centrifuged in the same fashion after being diluted with the same solvent the gel was extracted with in a volumetric ratio of 1 part rinse buffer to 4 parts solvent. To ensure 23RGD-hydrogel device rinse-exposed surface area was not a limiting factor, the same rinse and extraction process was performed upon devices pulverized after gelation and before rinsing. […]"}, "[9]": {"molecular_target": "T1, silk fibroin, sericin-extracted, from …", "experiment": "HPLC of 23RGD extracted from silk precipitate; formulation AVLO, against the calculated ratio", "procedure": "as §1, §2"}, "[10]": {"molecular_target": "T1, silk fibroin, sericin-extracted, from …", "experiment": "HPLC of 23RGD extracted from lyophilised silk precipitate; formulation printed as RMED", "procedure": "as §1"}, "[11]": {"molecular_target": "T1, silk fibroin, sericin-extracted, from …", "experiment": "HPLC of 23RGD extracted from lyophilised silk precipitate; formulation RHI", "procedure": "as §1"}, "[12]": {"molecular_target": "T1, silk fibroin, sericin-extracted, from …", "experiment": "HPLC of 23RGD extracted from lyophilised silk precipitate; formulation SCLO", "procedure": "as §1"}, "[13]": {"molecular_target": "T1, silk fibroin, sericin-extracted, from …", "experiment": "reading of the HPLC ratios of the silk precipitates", "procedure": "as §1"}},
  "data": [
    {"binder": "GRGDIPASSKGGGGSRLLLLLLR (not fully specified; -NH2 at the Arg end as printed (HOOC-Gly-...-Arg-NH2). An optional variant, SEQ ID NO: 2, is acylated (Ac-) and has D-arginines., also called 23RDG)", "note": "[23RGD peptide (HOOC-GRGDIPASSKG4SRL6R-NH2)]", "values": [
      {"measurement": "23RGD:silk ratio bound", "setting": "[1]", "result": 8.7, "unit": "mol 23RGD per mol silk"},
      {"measurement": "23RGD:silk ratio bound", "setting": "[2]", "result": 11, "unit": "mol 23RGD per mol silk"},
      {"measurement": "23RGD:silk ratio bound", "setting": "[3]", "result": 10.5, "unit": "mol 23RGD per mol silk"},
      {"measurement": "23RGD:silk ratio bound", "setting": "[4]", "result": 5.2, "unit": "mol 23RGD per mol silk"},
      {"measurement": "fold of bound RGD over the calculated RGD:silk ratio", "setting": "[5]", "result": "~1.5", "unit": "fold"},
      {"measurement": "23RGD:silk ratio bound", "setting": "[6]", "result": "~10", "unit": "mol 23RGD per mol silk"},
      {"measurement": "23RGD:silk ratio bound", "setting": "[7]", "result": 1.1, "unit": "mol 23RGD per mol silk"},
      {"measurement": "23RGD:silk ratio bound", "setting": "[8]", "result": 3.35, "unit": "mol 23RGD per mol silk"},
      {"measurement": "fold of bound RGD over the calculated RGD:silk ratio", "setting": "[9]", "result": "~2", "unit": "fold"},
      {"measurement": "23RGD:silk ratio bound", "setting": "[10]", "result": 6.95, "unit": "mol 23RGD per mol silk"},
      {"measurement": "23RGD:silk ratio bound", "setting": "[11]", "result": 10.7, "unit": "mol 23RGD per mol silk"},
      {"measurement": "23RGD:silk ratio bound", "setting": "[12]", "result": 9.9, "unit": "mol 23RGD per mol silk"},
      {"measurement": "apparent saturation, 23RGD:silk ratio", "setting": "[13]", "result": "~10", "unit": "mol 23RGD per mol silk"}
    ]}
  ]
}
